From patent US20230212305A1 (published 2023)
Substitutions are numbered along the chain they refer to.

T1: human ABCG2 (UniProt Q9UNQ0 1-655)
T1 chain: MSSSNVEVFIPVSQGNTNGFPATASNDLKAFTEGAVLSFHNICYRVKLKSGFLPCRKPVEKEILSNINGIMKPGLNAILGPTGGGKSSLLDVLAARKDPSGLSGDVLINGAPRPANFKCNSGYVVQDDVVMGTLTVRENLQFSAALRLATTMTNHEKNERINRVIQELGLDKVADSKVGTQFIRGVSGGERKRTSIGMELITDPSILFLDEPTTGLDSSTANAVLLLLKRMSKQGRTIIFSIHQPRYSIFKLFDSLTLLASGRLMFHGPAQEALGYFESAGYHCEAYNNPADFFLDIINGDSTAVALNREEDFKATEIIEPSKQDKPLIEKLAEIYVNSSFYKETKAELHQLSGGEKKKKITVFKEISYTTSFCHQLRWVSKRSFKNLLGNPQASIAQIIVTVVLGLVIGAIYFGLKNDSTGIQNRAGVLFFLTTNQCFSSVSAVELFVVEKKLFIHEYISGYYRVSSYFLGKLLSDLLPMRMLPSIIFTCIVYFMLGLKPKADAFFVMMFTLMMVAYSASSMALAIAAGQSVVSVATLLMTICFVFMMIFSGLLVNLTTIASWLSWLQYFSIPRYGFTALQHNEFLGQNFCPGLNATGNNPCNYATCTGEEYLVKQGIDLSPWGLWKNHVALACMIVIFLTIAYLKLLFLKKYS

T2: cynomolgus ABCG2 (Macaca fascicularis) (UniProt Q5MB13 1-654)
T2 chain: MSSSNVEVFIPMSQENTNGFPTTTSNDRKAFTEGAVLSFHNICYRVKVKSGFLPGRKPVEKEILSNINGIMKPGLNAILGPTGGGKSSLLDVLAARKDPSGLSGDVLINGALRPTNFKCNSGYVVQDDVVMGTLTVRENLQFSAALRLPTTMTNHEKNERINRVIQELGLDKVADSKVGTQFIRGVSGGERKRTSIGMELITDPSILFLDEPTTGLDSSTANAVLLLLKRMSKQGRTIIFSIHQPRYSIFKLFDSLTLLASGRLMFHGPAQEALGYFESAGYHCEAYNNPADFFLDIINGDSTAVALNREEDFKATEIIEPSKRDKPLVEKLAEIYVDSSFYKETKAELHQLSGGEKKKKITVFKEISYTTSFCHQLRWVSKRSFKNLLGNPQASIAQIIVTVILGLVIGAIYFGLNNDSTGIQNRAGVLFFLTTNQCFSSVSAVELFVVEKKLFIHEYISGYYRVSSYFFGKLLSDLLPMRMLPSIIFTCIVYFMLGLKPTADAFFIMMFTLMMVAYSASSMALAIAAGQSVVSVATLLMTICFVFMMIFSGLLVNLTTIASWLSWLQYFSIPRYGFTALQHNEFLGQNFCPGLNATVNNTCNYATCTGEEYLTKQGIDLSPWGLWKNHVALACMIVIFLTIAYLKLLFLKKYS

B1: G2_732 (antibody, V domains shown)
VH: VQLKESGPGLVQPSQTLSLTCTVSGLSLTSTGVSWIRQPPGKGLEWMGVIWSNGGTDYNSAIKSRLSISRDTSKSQVFLKMNSLQTEDTAMYFCARAIAPSYIMDAWGQGASVTVSS
VL: DIQMTQSPPSLSASLGDKVTITCQASQNIHKYIAWYRQKPGKPPRLLIRYTSTLQSGTPSRFSGSGSGRDYSFSISNVESEDIASYYCLQYVNLWTFGGGTKLELK
B2: G2_392 (antibody, V domains shown)
VH: B1 VH with K4V, G9D, K42R, K63R, P100A
VL: B1 VL with Q38H
B3: G2.631 rat (antibody, V domains shown)
VH: EVKLLESGGGLVQSGRSLKLSCAASGFIFSRFYMAWVRQAPRKGLEWVAYISNGAGSTYYRESVKGRFIISRDNAKSTLYLQMDSLRSEDTATYYCTTVAAPWNYVMDGWGQGASVTVSS
VL: NIQITQSPSLLSASVGDRVTLSCKGSQNINNYLAWYQQKLGEAPKLLIYKTNSLHTGIPSRFSGSGSGTDYTLTISSLHSEDLATYYCYQYNNGYTFGAGTKLELK
B4: G2.173 mouse (antibody, V domains shown)
VH: QVQLQQSGADLVRPGASVKLSCTASGFNIKDDYVHWVKQRPEQGLEWIGRIDPANGNTRYAPKFRGKATMTADTSSNTAYLQLSSLTSADTAVYYCSPPLWVGGFAYWGQGTLVTVSS
VL: DVVMTQTPLSLPVSLGDQASISCRSSQSLVHSDVNTYLHWYLQRPGQSPKLLIYKVSNRFSGVPDRFSGSGSGTDFTLKISRVESEDLGIYFCSQTTHVPYTFGGGTKLEIK
B5: G2.65 mouse (antibody, V domains shown)
VH: QGQMHQSGAELVKPGASVKLSCKTSGFTFNSGYISWLKQKPRQSLEWIAWIYAGTGISNFNQKFTGKAQLTVDTSSSTAYMQLSSLTSADSAIYFCASGARKTLDFWGQGTSVTVSS
VL: DIQMTQSSSYLSVSVGGRVTITCKASDQINYWLAWYQQKPGNAPRLLISGATSLETGVPSRFSGSGSGKDYTLSITSFQTEDVATYYCQQYWTTPYTFGGGTKVEIK
B6: G2.758 rat (antibody, V domains shown)
VH: QGTLKESGPGIVQSSHTLSLTCSFSGFSLSTYGMGVSWIRQPSGKGLEWLASVWWNGDTSNNPSLKSRLTVSKDTS
VL: DIQMTQSPPSLSASLGDKVTITCQASQNIYKYIAWYQQKPGKAPRLLIRYTSTLHFGTPSRFSGSGSGRDYSFSISNVESEDIARYYCQQYVKFPNTFGAGTILELK
B7: G2.760 rat (antibody, V domains shown)
VH: EVQLVESGGGLVQPGRSMKLSCAASGFTFSKSDMAWVRQAPTKGLKWVASIRYDGGNTYYRDSVRGRFTISRDNAKSTLYLQMDSLRSEDTATYYCSTAKAAISTPSYYVLDAWGQGASVTVSS
VL: DIGMTQSPTSMSKSVGDRVTMNCKASQNVGSNVDWFQQKTGQSPKLLIYKSSNRYTGVPARFTGSGSGTDFTFTISNMQAEDLAVYYCMQSNSYPPTFGGGTKLELK
B8: G2_767 (antibody, V domains shown)
VH: QVQLKESGPGLVQPSQTLSLTCTVSGLSLSSNSVSWIRQPPGKGLEWMGVIWNNGGTDYNSAIKSRLSISRDTSKSQVFLKLSSLQTEDTAMYFCARGYSSYIFDYWGQGVMVTVSS
VL: DIQMTQSPPSLSASLGDKVTITCQSSQNINNYIAWYQQKPGEAPRVLIRYTSTLQSGAPSRFSGSGSWRDYSFTISNVESEDIADYYCLQYVNLWTFGGGTKLEIK
B9: G2.757 rat (antibody, V domains shown)
VH: QVTLKESGPGILRPSHTLSLTCSFSGFSLTTYGICVSWIRQPSGKGLEWLANICWEDSKAYNPSLKNRLTISKDTSNNQVFLRIPSVDTADSAIYYCARVFNNYPFPYWGQGTLVTVSS
VL: TQSPPSLSASLGDKVTITCQASQNINKYVAWYQQKPGKAPRLLIRYTSTLESGTPSRFSGSGSWRDYSFSISNVESEDIADYYCLQYVNLWTFGGGTKLELK
B10: G2.343 rat (antibody, V domains shown)
VH: SVQLKESGPGLVQPSQTLSLTCTVSGFSLTSNGVSWVRQPPGKGLEWIAAISSGGSTYYNSVLKSRLSISRDTSKSQVFLKMNSLQTEDTAIYFCTRDTYYGYNQIPFVYWGQGTLVTVSS
VL: DVVLAQTPPTLSATIGQSVSISCRSSQSLLHSSGNTYLNWLLQRPGQPPQLLIYLVSRLESRVPNRFSGSGSGTDFTLKISGVEAEDLGVYYCVQSTHAPRTFGGGTKLELK
B11: G2.420 rat (antibody, V domains shown)
VH: SVQLMESGPGLVQPSQTLSLTCTVSGFSLNSYNVNWVRQPPGKGLEWIAAISSGGSTYYNSVLKSRLSITRDTSKSQVFLKMNSLQTEDTAMYFCARSGYYSSYMNWGQGVMVTVSS
VL: B10 VL with L4M, A5T, S33T, S61Y, R62G, V94A, P100L, R101N, G105A
B12: G2.629 rat (antibody, V domains shown)
VH: EVQLVESGGGLVQPGRSLKLSCAASGFIFSRFYMAWVRQAPTKGLEWVAYINTGGGTTYYRDSVKGRFTISRDNAKTTLYLQMDSLRSEDTATYYCTTLAAPWNYVMDAWGQGASVTVSS
VL: B3 VL with N1D, I2V, Q3V, I4M, S22T, Y32F, I48T, A99P
B13: G2.333 rat (antibody, V domains shown)
VH: EIQLQESGPGLVKPSQSLSLTCSVTGYTITSGYDWTWLRKFPGNKMEWMGYISYSGFTNYNPSLRSRISISRDTSKNQFFLQLNSVTTEDTATYYCARTRGYNPFPYWGQGTLVTVSS
VL: DIQMTQSPSLLSASVGDRVSLSCKAGRNVNNYLAWYQQKLGKPPKLLIYNSNSLQTGIPSRFSGSGSGTDFTLTISSLQPEDVATYFCQQYNSWTTFGSGTKLEIK
B14: G2.318 rat (antibody, V domains shown)
VH: B13 VH with I2V, Q3K, Q5L, T36S, L38I, F57W, T99V, P106A
VL: B13 VL with Q3V, S20T, R27Q, V29I, K42E, P43A, S51A
B15: G2.636.hu25 (antibody, V domains shown)
VH: EVQLVESGGGLVQPGGSLRLSCAASGFTFSRFYMAWVRQAPGKGLEWVAHISHGGDTTYYRDSVKGRFTISRDNSKNTLYLQMNSLRAEDTAVYYCTTSAAPWNYVMDGWGQGTLVTVSS
VL: AIQLTQSPSSLSASVGDRVTITCKGSQNINNFLAWYQQKPGKAPKLLIYKTNSLHTGIPSRFSGSGSGTDYTLTISSLQPEDFATYYCYQYNNGYTFGQGTKLEIK
B16: G2.636.hu47 humanized (antibody, V domains shown)
VH: B15 VH with T114A, L115T
VL: B15 VL with A1D, I21L
B17: G2.636.hu45 (antibody, V domains shown)
VH: B15 VH with T114A, L115T
VL: B15 VL
B18: G2.636.hu27 (antibody, V domains shown)
VH: B15 VH
VL: B15 VL with A1D, I21L

Biological target: T1, human ABCG2
Assay: FACS binding to 293T cells

| Kd [nM] | Binder |
| --- | --- |
| 6.2 | B1 |
| 35.3 | B2 |

Biological target: T2, cynomolgus ABCG2 (Macaca fascicularis)
Assay: FACS binding to 293T cells

| Kd [nM] | Binder |
| --- | --- |
| 14.8 | B1 |
| 93.4 | B2 |
| 15 | B3 |

Biological target: T1, human ABCG2
Assay: FACS cell binding (MFI)

| EC50 [nM] | Binder |
| --- | --- |
| 17.1 | B4 |
| 180 | B5 |

Biological target: T2, cynomolgus ABCG2 (Macaca fascicularis)
Assay: FACS binding to 293T.cG2 cells

| Kd [nM] | Binder |
| --- | --- |
| 107 | B6 |
| 2.4 | B7 |
| 1370 | B8 |
| 73.5 | B9 |

Biological target: T1, human ABCG2
Assay: FACS binding to 293T.hG2 cells

| Kd [nM] | Binder |
| --- | --- |
| 17.5 | B6 |
| 3.4 | B7 |
| 31.2 | B8 |
| 12.4 | B9 |

Biological target: T1, human ABCG2
Assay: FACS binding to 293T cells
Remark: another data set of the same source

| Kd [nM] | Binder |
| --- | --- |
| 8.4 | B10 |
| 11.1 | B11 |
| 4.6 | B3 |
| 50.1 | B12 |

Biological target: T2, cynomolgus ABCG2 (Macaca fascicularis)
Assay: FACS binding to 293T cells
Remark: another data set of the same source

| Kd [nM] | Binder |
| --- | --- |
| 58.4 | B10 |
| 29.9 | B11 |
| 111 | B13 |
| 49.8 | B14 |
| 67.7 | B3 |
| 540 | B12 |

Biological target: T1, human ABCG2
Assay: cell binding

| EC50 [nM] | Binder |
| --- | --- |
| 28.5 | B15 |
| 20.4 | B16 |
| 18.5 | B17 |
| 23.1 | B18 |

Biological target: T2, cynomolgus ABCG2 (Macaca fascicularis)
Assay: cell binding

| EC50 [nM] | Binder |
| --- | --- |
| 87.4 | B15 |
| 42.6 | B16 |
| 65.3 | B17 |
| 38.8 | B18 |
